This note sets out measurements from the nanobody polyreactivity screen of Harvey et al. (2022).

This data set is described as follows: yeast display, Sf9 membrane polyspecificity reagent, FACS + sequencing; frameworks hold sequencing errors. In outline:
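A synthetic nanobody library was expressed on Saccharomyces cerevisiae BJ5465 by galactose induction for 36–48 hours. The library was stained for 1 hour at 4 °C with 10% biotinylated, detergent-solubilized Sf9 membrane reagent and enriched with streptavidin microbeads before FACS. Low and high (top ~1%) gates were set on anti-HA fluorescence for expression and streptavidin fluorescence for reagent binding, and each polyreactivity label reflects the gate of origin.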
As for “QVQLVESGGGLVQAGGSLRLSCAASGRIFVVYVMGWYRQATGKEREFVAAITWGGGNTYYADSVKGRFTISRDNAKNTVYLQMNSLKPEDTAVYYCAAAPRKYVWMDYWGQGTQVTVSS”, the “polyreactivity (PSR sort gate)” value is on record as “low polyreactivity”.

With “QVQLVESGGGLVQAGGSLRLSCAASGRIFVWNAMGWYRQAPGKERELVAAITSSGGNTYYADSVKGRFTISRDNAKNTVYLQMNSLKPEDTAVYYCAARSSSRTQATTRYGYWGQGTQVTVSS”, the “polyreactivity (PSR sort gate)” value was “high polyreactivity”.

For “QVQLVESGGGLVQAGGSLRLSCAASGRIFVYNAMGLYRQAPGKERELVAAISSTGSTNYADSVKGRFTISRDNAKNTVYLQMNSLKPEDTAVYYFAAVYYFYGYSGYYGQYDYWGQGTQVTVSS”, the “polyreactivity (PSR sort gate)” value is on record as “low polyreactivity”.

Regarding “QVQLVESGGGLVQAGGSLRLSCAASGRIFVYNTMGWYRQAPGKERELVAAIDWSGGSKYYADSVKGRFTISRDNAKNTVYLQMNSLKPEDTAVYYCNADSLIGMDYWGQGTQVTVSS”, the “polyreactivity (PSR sort gate)” value was “high polyreactivity”.

As to “QVQLVESGGGLVQAGGSLRLSCAASGRIFVYNVMGRYRQAPGKERDLVAAISWGTGSTYADSVKGRFTISRDNAKNTVYLQMNSLKPEDTAVYYCAADSFIPPYDHWGLGTQVTVSS”, the “polyreactivity (PSR sort gate)” value is listed as “low polyreactivity”.

Regarding “QVQLVESGGGLVQAGGSLRLSCAASGRIFVYNVMGWYRQAPGKERELVAAISWGTGSTYADSVKGRFTISRDNAKNTVYLQMNSLKPEDTAVYYCAADSFIPPYDHWGQGTQVTVSS”, the “polyreactivity (PSR sort gate)” value is “low polyreactivity”.

With “QVQLVESGGGLVQAGGSLRLSCAASGRIFVYYAMGWYRQAPGKEMELVASISYSGASTYYADSVKGRFTISRDNAKNTVYLQMNSLKPEDTAVYYCNTDGDDFFHVIYDYWGQGTQVTVSS”, the “polyreactivity (PSR sort gate)” value is “low polyreactivity”.

Turning to “QVQLVESGGGLVQAGGSLRLSCAASGRIFVYYAMGWYRQAPGKEREFVAAISSRDDSTYYADSVKGRFTISRDNAKNTVYLQMNSLKPEDTAVYYCAADWRLGVGYDYWGQGSQVTVSS”, the “polyreactivity (PSR sort gate)” value is “low polyreactivity”.

Regarding “QVQLVESGGGLVQAGGSLRLSCAASGRIFVYYPMGWYRQAPGIERELVAAINAGGSTNYADSVKGRFTISRDNAKNTVYLQMNSLKPEDTAVYYCAAVRRSRYSYRGYYWGQGTQVTVSS”, the “polyreactivity (PSR sort gate)” value is listed as “high polyreactivity”.

Regarding “QVQLVESGGGLVQAGGSLRLSCAASGRIFVYYTMGWYRQAPGKERELVAAITGSGGSTYYADSVKGRFTISRDNAKNTVYLQMNSLKPEDTAVYSCAVYDSYRKFKYWGQGTQVTVSS”, the “polyreactivity (PSR sort gate)” value was “high polyreactivity”.

As to “QVQLVESGGGLVQAGGSLRLSCAASGRIFWANAMGWYRQAPGKERELVAAINRRTGITYYADSVKGRFTISRDNAKNTVYLQMNSLNPEDTAVYYCAAARGKDGYSGQGTQVTVSS”, the “polyreactivity (PSR sort gate)” value is listed as “high polyreactivity”.

For the sequence “QVQLVESGGGLVQAGGSLRLSCAASGRIFWANAMGWYRQAPGKERELVAAISNSGVSTYYADSVKGRFTISRDNAKHTVYLQMNSLKPEDTAVYYCAADRYRKYYYWGQGTLVTVSS”, the “polyreactivity (PSR sort gate)” value was “high polyreactivity”.

Consider “QVQLVESGGGLVQAGGSLRLSCAASGRIFWAYAMGWYRQAPGKERELVAGITFTGGRTYYADSVKGRFTISRDNAKNTVYLQMNSLKPEDTAVYYCAAAGLDVGRKDRDGYWGQGTQVTVSS”, for which the “polyreactivity (PSR sort gate)” value was “low polyreactivity”.

“QVQLVESGGGLVQAGGSLRLSCAASGRIFWGNALGWYRQAPGKVRELVAAITRRGGTTFYADSVKGRFTISRDNAKNTVYLQKNSLKPEDTAGYYCAARRYCQYDGYDSGGQGTQVTVSS”: the “polyreactivity (PSR sort gate)” value was “high polyreactivity”.

In the case of “QVQLVESGGGLVQAGGSLRLSCAASGRIFWGNAMGWYRQAPGKERELVAAISSSGGSTYYADSVKGRFTISRDNAKNTVYLQMNSLKPEDTAVYYCAARYPTYYYRYDYWGQGTQVTVSS”, the “polyreactivity (PSR sort gate)” value is given as “high polyreactivity”.

With “QVQLVESGGGLVQAGGSLRLSCAASGRIFWGYAMGWYRQAPGKERELVARITSGGDTYYADSVKGRFTISRDNAKNTVYLQMNSLKPEDTAVYYCNADVGTEWDNYPEVDYWGQGTQVTVSS”, the “polyreactivity (PSR sort gate)” value is reported as “low polyreactivity”.

On to “QVQLVESGGGLVQAGGSLRLSCAASGRIFWGYDMGWYRQAPGKERELVAAINWSGGITNYADSVKGRFTISRDNAKNTVYLQMNSLKPEDTAVYYCAADTYWHRYYWGQGTQVTVSS”, for which the “polyreactivity (PSR sort gate)” value was “high polyreactivity”.

Turning to “QVQLVESGGGLVQAGGSLRLSCAASGRIFWPYAMGWYRPAPGKERELVAAITSGGSTYYADSVKGRFTISRDNAKNTVYLQMNSLKPEVTAVYYCAKRSSGVSVPVAYGGIKRYNSWGQGTQVTVSS”, the “polyreactivity (PSR sort gate)” value is “low polyreactivity”.

“QVQLVESGGGLVQAGGSLRLSCAASGRIFWPYAMGWYRQAPGKERELVAAISRGGSTYYADSVKGRFTISRDNAKNTVYLQINSLKPEDTAVYYCAVAFRGSYRPAYYYWRQGTQVTVSS”: the “polyreactivity (PSR sort gate)” value is given as “high polyreactivity”.

Regarding “QVQLVESGGGLVQAGGSLRLSCAASGRIFWPYAMGWYRQAPGKERELVAAISWGDGTTYYADSVKGRFTISRDNAKNTVYLQMNSLKPEDTAVYYCAVELWPDYVTDIRYYDGFDYWGQGTQVTVSS”, the “polyreactivity (PSR sort gate)” value was “low polyreactivity”.

For the sequence “QVQLVESGGGLVQAGGSLRLSCAASGRIFWPYAMGWYRQAPGKERELVAAITSGGSTYYADSVKGRFTISRDNAKNTVYLQMNSLKPEDTAVYYCNAKLRRHYDHLYDYWGQGTQVTVSS”, the “polyreactivity (PSR sort gate)” value was “low polyreactivity”.

On to “QVQLVESGGGLVQAGGSLRLSCAASGRIFWRYAMGWYRQAPGKERELVAGITYSGGRTYYADSVKGRFTISRDNAKNTVYLQMNSLTPEDTAVYYCAARGYFDALFDYWGQGTQVTVSS”, for which the “polyreactivity (PSR sort gate)” value is “low polyreactivity”.

In the case of “QVQLVESGGGLVQAGGSLRLSCAASGRIFWRYAMGWYRQAPGKERQLVAGITYSGGRTYYADSVKGRFTISRDNAKNTVYLQMNSLKPEDTAVYYCAARGYFDALFDYWGQGTQVTVSS”, the “polyreactivity (PSR sort gate)” value is on record as “low polyreactivity”.

Turning to “QVQLVESGGGLVQAGGSLRLSCAASGRIFWSNAMGWYRQAPGKERELVAAISYSGGSTYYADSVKGRFTISRDNAKNTVYLQMNSLKPEDTAVYYCAALFRPRVHRFDYWGQGTQVTVSS”, the “polyreactivity (PSR sort gate)” value is “low polyreactivity”.

Turning to “QVQLVESGGGLVQAGGSLRLSCAASGRIFWSYAMGWYRPAPGKERELVAAISYSGGGTYYADSVKGRFTISRDNAKNTVYLQMNSLKPEDTAVYYCAAETYYAPYDYWGQGTQVTVSS”, the “polyreactivity (PSR sort gate)” value was “high polyreactivity”.

Consider “QVQLVESGGGLVQAGGSLRLSCAASGRIFWTYAMGWYRQAPGKERELVASITWSGGSTYYADSVKGRFTISRDNAKNTVYLQMNSLKPEDTAVYYCHTDVLAPYDSGYWGQGTQVTVSS”, for which the “polyreactivity (PSR sort gate)” value is given as “low polyreactivity”.

Take “QVQLVESGGGLVQAGGSLRLSCAASGRIFWYYAMGGYRQAPGKEREFVATINTSGGSTYYADSLKGRFTISRDYARSTVCLQMNSLTPEDTAVYYCYAACRYYRTEYYSWGQGTQVTVSS”: the “polyreactivity (PSR sort gate)” value was “low polyreactivity”.

On to “QVQLVESGGGLVQAGGSLRLSCAASGRIFWYYAMGWSRQAPGKERELVATISSRSGSTYYADSVKGRFTISRDNAKNTVYLQMNSLKPEDTAVYYCAAGTPYYLGYRHNTGLFDYWGQGTQVTVSS”, for which the “polyreactivity (PSR sort gate)” value was “high polyreactivity”.

“QVQLVESGGGLVQAGGSLRLSCAASGRIFWYYAMGWYRQAPGKERELVAAISWSGGTTYYADSVKGRFTISRDNAKNTVYLQMNSLKPEDTAVYYCAAVFQYGYGEDYWGQGTQVTVSS”: the “polyreactivity (PSR sort gate)” value is given as “high polyreactivity”.

As for “QVQLVESGGGLVQAGGSLRLSCAASGRIFWYYAMGWYRQAPGKERELVARITSGGRTYYADSVKGRFTISRDNAKNTVYLQMNSLKPEDTAVYYCARRGRKAYGYWGQGTQVTVSS”, the “polyreactivity (PSR sort gate)” value is on record as “high polyreactivity”.

As to “QVQLVESGGGLVQAGGSLRLSCAASGRIFWYYAMGWYRQAPGKERELVASITRGNNTYYADSVKGRFTISRDNAKNPVYLQMNSLIPEDTAVYYCNAYRVRYTVDSVFYGYDYWGQGTHVTVSS”, the “polyreactivity (PSR sort gate)” value is listed as “high polyreactivity”.

For the sequence “QVQLVESGGGLVQAGGSLRLSCAASGRIFWYYSMGRYRQAPATEREVVATITTRSGSTYYADSVKGRFTISRDNAKNTVYLQMNSMKPEDTAGYYCAADWPLLYTGSHSQTKYGYWGQGTQVTVSS”, the “polyreactivity (PSR sort gate)” value is “high polyreactivity”.

As for “QVQLVESGGGLVQAGGSLRLSCAASGRIFWYYVMGWSRQAPGKEREFVASISSGGSTYYADSVKGRFTISRDNAKNTVYLQMNSLKPEDTAVYYCNAYVYGQRVWYDYWGQGTQVTVSS”, the “polyreactivity (PSR sort gate)” value is on record as “high polyreactivity”.

For the sequence “QVQLVESGGGLVQAGGSLRLSCAASGRIFYANAMGWYRQAPGKERELVAAISSGGSTYYADSVKGRFTISRDNAKNTVYLKMYSLKPEDTAVYYCAASTVGQTFSYYVDTYDYWGQGTQVTVSS”, the “polyreactivity (PSR sort gate)” value is recorded as “low polyreactivity”.

On to “QVQLVESGGGLVQAGGSLRLSCAASGRIFYANAMGWYRQAPGKERELVAGISSGGITNYADSVKGRFTISRDNAKITVYLQMNSLKPEDTAVYYCAVESWNRWRNRNDYWGQGTQVTVSS”, for which the “polyreactivity (PSR sort gate)” value was “low polyreactivity”.

For “QVQLVESGGGLVQAGGSLRLSCAASGRIFYAYAMGWYRQAPGKERELVAGISRGSSTNYADSVKGRFTISRDNAKNTVYLQMNSLKPEDTAVYYSAADVHRRGRYHSTYDYWGQGTQVTVSS”, the “polyreactivity (PSR sort gate)” value is listed as “low polyreactivity”.

For the sequence “QVQLVESGGGLVQAGGSLRLSCAASGRIFYAYVMGWYRQAPGKERELVAAITSSGGSTYYADSVKGRFTISRDNAKNTVYLQMNSLKPEDTAVYYCNARSYPRWLRYDYWGQGTQVTVSS”, the “polyreactivity (PSR sort gate)” value is given as “low polyreactivity”.

As to “QVQLVESGGGLVQAGGSLRLSCAASGRIFYAYVMGWYRQAPGKERELVADITSSGSTNYADSVKGRFTISRDNAKNTVYLQMNSLKPEDTAVYYCAKVPYAYQVRRKFGYWGQGTQVTVSS”, the “polyreactivity (PSR sort gate)” value is on record as “low polyreactivity”.

As for “QVQLVESGGGLVQAGGSLRLSCAASGRIFYDNTMGWYRQAPGKERELVAAISVSGGRTYYADSVKGRFTISRDNAKNTVYLQLNSLKPEDTAVYYCAADRGGEYWGQGTQVTVSS”, the “polyreactivity (PSR sort gate)” value was “high polyreactivity”.

With “QVQLVESGGGLVQAGGSLRLSCAASGRIFYEYAMGWYRQAPGKERELVAAITRGDSTYYADSVKGRFTISRDNAKNTVYLQMNSLKPEDTAVYFCNAGVFDYSGDSNYWGQGTQVTVSS”, the “polyreactivity (PSR sort gate)” value is given as “low polyreactivity”.

Turning to “QVQLVESGGGLVQAGGSLRLSCAASGRIFYFNGMGWYRQAPGKERELVASISASGDRTYYADSVKGRFTISRDNAKNTVYLQMNSLKPEDTAVYYCATDANTYTKYDYWGQGTQVTVSS”, the “polyreactivity (PSR sort gate)” value is “low polyreactivity”.
